# Results taken from article PMC7488863, “Overexpression of transcription factor SlWRKY28 improved the tolerance of Populus davidiana × P. bolleana to alkaline salt stress”.
# B1: W-box probe (Biotin-Pr) (dsDNA)
# DNA 1: GGAACTTGACCTTGACCTTAGGGCTGCAGGAATTCG
# DNA 2: CGAATTCCTGCAGCCCTAAGGTCAAGGTCAAGTTCC
# B2: W-box cold probe (Cold-Pr) (dsDNA)
# DNA 1: GGAACTTGACCTTGACCTTAGGGCTGCAGGAATTCG
# DNA 2: CGAATTCCTGCAGCCCTAAGGTCAAGGTCAAGTTCC
# What was measured:
# GST-SlWRKY28 [1] = target: T1, GST-SlWRKY28 (Salix linearistipularis, UniProt A0A4D6JIT6 1-474); test: EMSA; EMSA/gel-shift binding buffer (Beyotime kit, 5x stock, 2 uL per 10 uL reaction), 25 C, 20 min; salt and pH not stated; conditions: protein: recombinant; tags: N-terminal GST (pGEX-6p-3); label: biotin (both probe strands); blunt
# T1 sequence (A0A4D6JIT6 entry or part of it): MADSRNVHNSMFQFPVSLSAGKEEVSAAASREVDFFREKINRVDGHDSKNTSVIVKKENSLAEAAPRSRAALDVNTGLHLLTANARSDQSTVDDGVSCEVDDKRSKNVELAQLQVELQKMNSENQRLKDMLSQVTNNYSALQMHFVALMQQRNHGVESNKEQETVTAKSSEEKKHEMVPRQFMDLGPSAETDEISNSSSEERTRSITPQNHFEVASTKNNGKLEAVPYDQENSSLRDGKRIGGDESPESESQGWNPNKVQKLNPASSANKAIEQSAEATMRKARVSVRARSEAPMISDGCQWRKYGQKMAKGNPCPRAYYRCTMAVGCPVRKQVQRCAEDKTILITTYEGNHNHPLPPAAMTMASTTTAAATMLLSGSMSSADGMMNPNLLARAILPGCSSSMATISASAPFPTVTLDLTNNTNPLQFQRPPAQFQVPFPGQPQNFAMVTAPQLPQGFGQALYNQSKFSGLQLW
# GST-SlWRKY28 [2] = target: T1, GST-SlWRKY28; test: competition; 10x and 50x unlabeled probe against Biotin-Pr; complex signal weak with cold probe; EMSA/gel-shift binding buffer (Beyotime kit, 5x stock, 2 uL per 10 uL reaction), 25 C, 20 min; salt and pH not stated; conditions: protein: recombinant; tags: N-terminal GST (pGEX-6p-3); blunt
binder,measurement,setting,value
B1,binding result,GST-SlWRKY28 [1],binds
B2,binding result,GST-SlWRKY28 [2],binds
